These are literature values, as cited in US11884941B2, “Non-canonical lipoproteins with programmable assembly and architecture and method of making non-canonical lipoproteins” (SYRACUSE UNIVERSITY, priority 2020, dated 2024).

The target of one series is T1, yeast NMT (Saccharomyces cerevisiae, UniProt P14743).
T1 sequence (P14743 1-455): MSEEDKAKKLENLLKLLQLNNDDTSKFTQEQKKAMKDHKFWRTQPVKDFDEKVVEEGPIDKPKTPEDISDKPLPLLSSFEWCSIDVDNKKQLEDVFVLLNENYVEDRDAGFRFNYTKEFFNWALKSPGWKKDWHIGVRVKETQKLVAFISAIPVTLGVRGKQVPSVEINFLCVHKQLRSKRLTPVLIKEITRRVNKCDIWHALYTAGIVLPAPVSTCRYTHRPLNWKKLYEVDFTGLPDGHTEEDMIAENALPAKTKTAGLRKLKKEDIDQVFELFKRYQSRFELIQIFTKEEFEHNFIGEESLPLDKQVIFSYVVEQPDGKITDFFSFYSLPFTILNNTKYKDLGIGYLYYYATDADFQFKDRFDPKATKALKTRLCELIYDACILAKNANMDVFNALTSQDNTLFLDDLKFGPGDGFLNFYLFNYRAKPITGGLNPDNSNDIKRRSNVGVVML

Series [1] relates to Pseudomonas acyl-CoA synthetase. The settings on record: in vitro.

Where two headings read alike, the source gives them in different places.

Regarding GLYASKLFSNL (substrate for transferase), the Km – broadly, the substrate concentration at which the rate is half of its maximum – with yeast NMT (read-out: Km of recognition sequence for yeast NMT) was around 0.08 µM.
For `[N-]=[N+]=NCCCCCCCCCCCC(=O)O` [ADA, 12-azidododecanoic acid], the “Vm relative to Vm (M)” value at yeast NMT (transfer to N-terminal glycine in ternary complex) is on record as 1.5 ×Vm (M).
For “GARASVLS [octapeptide NMT substrate derived from Pr55gag polypeptide precursor of human immunodeficiency virus I (Devadas et al.)]”, in the series with yeast NMT, the “fold reduction of peptide affinity toward NMT:ADA-CoA complex compared to natural substrate (M-CoA)” value was 7 fold. Besides, the Km in the series with yeast NMT (NMT with ADA-CoA bound, read-out: Km for the peptide, NMT:ADA-CoA) was 66 µM; with yeast NMT (NMT with Myr-CoA bound, read-out: Km for the peptide, NMT:Myr-CoA complex), 9 µM.
For `CC(C)(COP(=O)(O)OP(=O)(O)OCC1OC(n2cnc3c(N)ncnc32)C(O)C1OP(=O)(O)O)C(O)C(=O)NCCC(=O)NCCSC(=O)CCCCCCCCCCCN=[N+]=[N-]` (stereo not drawn) [ADA-CoA], the “amount of acyl-CoA produced compared to M-CoA” value in series [1] is listed as 1.5-2 times.
